# Measurements as given in patent US20240010722A1 (published 2024).
# Numbering of substitutions follows the chain as printed.
# T1: human MAdCAM (human, UniProt Q13477 19-317, limits assumed)
# T1 construct: also called huMAdCAM; human MAdCAM-1
# T1 sequence (looked up): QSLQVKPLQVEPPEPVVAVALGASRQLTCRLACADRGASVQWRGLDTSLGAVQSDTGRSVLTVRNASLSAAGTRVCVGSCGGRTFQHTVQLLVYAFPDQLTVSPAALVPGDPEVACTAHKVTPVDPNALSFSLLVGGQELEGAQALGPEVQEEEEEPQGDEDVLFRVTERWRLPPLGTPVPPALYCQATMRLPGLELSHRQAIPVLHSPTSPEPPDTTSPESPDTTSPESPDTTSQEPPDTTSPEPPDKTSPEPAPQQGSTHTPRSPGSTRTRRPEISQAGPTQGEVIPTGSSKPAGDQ
# B1: PMAB2 (bispecific antibody, human IgG1, kappa)
# heavy: EVQLLESGGGLVQPGGSLRLSCAASGFTFSNSDMSWVRQAPGKGLEWVSGITISGGSTYYADSVKGRFTISRDNSKNTLYLQMNSLRAEDTAVYYCARGRGGSGWLDYWGQGTLVTVSSASTKGPSVFPLAPSSKSTSGGTAALGCLVKDYFPEPVTVSWNSGALTSGVHTFPAVLQSSGLYSLSSVVTVPSSSLGTQTYICNVNHKPSNTKVDKKVEPKSCDKTHTCPPCPAPEAAGAPSVFLFPPKPKDTLMISRTPEVTCVVVDVSHEDPEVKFNWYVDGVEVHNAKTKPREEQYNSTYRVVSVLTVLHQDWLNGKEYKCKVSNKALPAPIEKTISKAKGQPREPQVYTLPPSREEMTKNQVSLTCLVKGFYPSDIAVEWESNGQPENNYKTTPPVLDSDGSFFLYSKLTVDKSRWQQGNVFSCSVMHEALHNHYTQKSLSLSPGGGGGSGGGGSGGGGSEVQLLESGGGLVQPGGSLRLSCAASGFTFSSYWMHWVRQAPGKGLEWVSAISGSSGSTYYADSVKGRFTISRDNSKNTLYLQMNSLRAEDTAVYYCARDRPYGYYMDVWGKGTTVTVSSGGGGSGGGGSGGGGSGGGGSDIQMTQSPSSLSASVGDRVTITCRASQSISSSLAWYQQKPGKAPKLLIYAASSLQSGVPSRFSGSGSGTDFTLTISSLQPEDFATYYCQQYKSYPVTFGQGTKVEIK
# light: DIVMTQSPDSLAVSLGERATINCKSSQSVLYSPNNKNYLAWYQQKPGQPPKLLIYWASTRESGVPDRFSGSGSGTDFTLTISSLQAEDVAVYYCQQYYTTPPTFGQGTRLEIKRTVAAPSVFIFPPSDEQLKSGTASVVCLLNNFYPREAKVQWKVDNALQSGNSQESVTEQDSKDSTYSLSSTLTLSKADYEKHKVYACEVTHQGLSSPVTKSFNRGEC
# B2: PMAB3 (bispecific antibody, human IgG1, kappa)
# heavy: B1 heavy with G566Y
# light: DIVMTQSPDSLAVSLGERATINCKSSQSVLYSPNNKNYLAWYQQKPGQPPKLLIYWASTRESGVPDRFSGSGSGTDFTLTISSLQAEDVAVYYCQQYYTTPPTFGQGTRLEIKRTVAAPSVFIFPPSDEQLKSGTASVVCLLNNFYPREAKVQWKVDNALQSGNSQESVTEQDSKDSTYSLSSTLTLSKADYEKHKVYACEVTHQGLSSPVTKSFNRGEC
# B3: PMAB4 (bispecific antibody, human IgG1, kappa)
# heavy: B1 heavy with S633R
# light: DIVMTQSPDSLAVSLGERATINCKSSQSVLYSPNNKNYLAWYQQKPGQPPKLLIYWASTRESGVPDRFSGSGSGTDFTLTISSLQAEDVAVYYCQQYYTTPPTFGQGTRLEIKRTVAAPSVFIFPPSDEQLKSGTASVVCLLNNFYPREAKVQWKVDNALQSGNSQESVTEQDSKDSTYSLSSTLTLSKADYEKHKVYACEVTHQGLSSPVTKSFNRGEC
# B4: PMAB5 (bispecific antibody, human IgG1, kappa)
# heavy: B1 heavy with G566Y, S633R
# light: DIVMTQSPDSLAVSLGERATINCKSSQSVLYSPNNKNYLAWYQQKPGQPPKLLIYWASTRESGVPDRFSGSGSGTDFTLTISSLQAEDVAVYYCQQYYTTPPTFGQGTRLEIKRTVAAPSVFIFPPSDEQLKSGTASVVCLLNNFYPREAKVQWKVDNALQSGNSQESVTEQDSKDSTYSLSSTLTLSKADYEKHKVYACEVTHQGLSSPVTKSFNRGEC
# B5: PMAB6 (bispecific antibody, human IgG1, kappa)
# heavy: B1 heavy with V511I, S518G
# light: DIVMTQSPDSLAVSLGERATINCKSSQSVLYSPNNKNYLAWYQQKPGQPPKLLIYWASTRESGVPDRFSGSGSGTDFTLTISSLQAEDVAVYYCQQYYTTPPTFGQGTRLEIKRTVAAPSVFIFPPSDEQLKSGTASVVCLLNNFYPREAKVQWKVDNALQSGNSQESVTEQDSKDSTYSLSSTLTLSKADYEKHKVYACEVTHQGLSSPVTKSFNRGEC
# B6: PMAB7 (bispecific antibody, human IgG1, kappa)
# heavy: B1 heavy with V511I, S518G, G566Y
# light: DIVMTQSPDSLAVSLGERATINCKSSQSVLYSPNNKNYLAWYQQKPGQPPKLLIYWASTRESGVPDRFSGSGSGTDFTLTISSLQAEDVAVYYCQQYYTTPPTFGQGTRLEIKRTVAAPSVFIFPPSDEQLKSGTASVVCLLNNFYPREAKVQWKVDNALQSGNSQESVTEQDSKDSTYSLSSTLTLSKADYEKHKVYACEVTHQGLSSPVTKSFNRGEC
# B7: PMAB8 (bispecific antibody, human IgG1, kappa)
# heavy: B1 heavy with V511I, S518G, S633R
# light: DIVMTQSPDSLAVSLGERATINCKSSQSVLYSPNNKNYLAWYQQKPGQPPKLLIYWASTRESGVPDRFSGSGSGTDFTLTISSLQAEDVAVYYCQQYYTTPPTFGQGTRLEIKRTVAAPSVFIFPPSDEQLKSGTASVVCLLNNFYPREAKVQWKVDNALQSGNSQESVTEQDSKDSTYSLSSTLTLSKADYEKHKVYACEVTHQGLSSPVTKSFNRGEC
# B8: PMAB9 (bispecific antibody, human IgG1, kappa)
# heavy: B1 heavy with V511I, S518G, G566Y, S633R
# light: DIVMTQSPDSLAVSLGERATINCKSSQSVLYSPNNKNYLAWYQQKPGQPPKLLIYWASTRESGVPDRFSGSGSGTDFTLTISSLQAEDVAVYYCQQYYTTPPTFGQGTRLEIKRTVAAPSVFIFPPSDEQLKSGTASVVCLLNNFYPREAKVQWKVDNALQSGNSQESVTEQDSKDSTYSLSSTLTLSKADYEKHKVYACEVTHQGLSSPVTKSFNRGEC
# B9: PMAB10 (bispecific antibody, human IgG1, kappa)
# heavy: B1 heavy with S518G
# light: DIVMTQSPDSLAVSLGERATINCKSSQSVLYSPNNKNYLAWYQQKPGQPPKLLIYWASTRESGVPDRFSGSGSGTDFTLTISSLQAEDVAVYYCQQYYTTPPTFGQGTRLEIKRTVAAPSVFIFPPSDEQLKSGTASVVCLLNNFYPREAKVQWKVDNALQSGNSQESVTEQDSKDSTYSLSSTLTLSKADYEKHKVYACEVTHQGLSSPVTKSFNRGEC
# B10: PMAB11 (bispecific antibody, human IgG1, kappa)
# heavy: B1 heavy with S518G, G566Y
# light: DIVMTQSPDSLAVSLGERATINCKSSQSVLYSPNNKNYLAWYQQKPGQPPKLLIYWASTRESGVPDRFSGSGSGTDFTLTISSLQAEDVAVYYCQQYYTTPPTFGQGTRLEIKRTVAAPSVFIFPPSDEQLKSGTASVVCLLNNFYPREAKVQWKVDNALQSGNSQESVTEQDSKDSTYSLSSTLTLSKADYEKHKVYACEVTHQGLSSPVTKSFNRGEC
# B11: PMAB12 (bispecific antibody, human IgG1, kappa)
# heavy: B1 heavy with S518G, S633R
# light: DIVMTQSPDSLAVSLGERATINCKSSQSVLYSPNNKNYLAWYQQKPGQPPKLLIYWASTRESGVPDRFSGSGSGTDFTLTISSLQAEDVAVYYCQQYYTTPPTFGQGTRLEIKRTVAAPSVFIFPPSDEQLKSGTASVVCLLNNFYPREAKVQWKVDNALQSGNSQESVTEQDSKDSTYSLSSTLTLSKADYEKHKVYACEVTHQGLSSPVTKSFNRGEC
# B12: PMAB13 (bispecific antibody, human IgG1, kappa)
# heavy: B1 heavy with S518G, G566Y, S633R
# light: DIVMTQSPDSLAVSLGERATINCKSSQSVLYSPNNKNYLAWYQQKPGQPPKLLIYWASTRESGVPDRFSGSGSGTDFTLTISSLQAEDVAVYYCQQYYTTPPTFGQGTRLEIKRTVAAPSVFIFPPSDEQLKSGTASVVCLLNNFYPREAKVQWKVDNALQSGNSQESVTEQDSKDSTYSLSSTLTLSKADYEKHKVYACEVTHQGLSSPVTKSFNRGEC
# B13: PMAB21 (bispecific antibody, human IgG1, kappa)
# heavy: EVQLLESGGGLVQPGGSLRLSCAASGFTFSNSDMSWVRQAPGKGLEWVSGITISGGSTYYADSVKGRFTISRDNSKNTLYLQMNSLRAEDTAVYYCARGRGGSGWLDYWGQGTLVTVSSASTKGPSVFPLAPSSKSTSGGTAALGCLVKDYFPEPVTVSWNSGALTSGVHTFPAVLQSSGLYSLSSVVTVPSSSLGTQTYICNVNHKPSNTKVDKKVEPKSCDKTHTCPPCPAPEAAGAPSVFLFPPKPKDTLMISRTPEVTCVVVDVSHEDPEVKFNWYVDGVEVHNAKTKPREEQYNSTYRVVSVLTVLHQDWLNGKEYKCKVSNKALPAPIEKTISKAKGQPREPQVYTLPPSREEMTKNQVSLTCLVKGFYPSDIAVEWESNGQPENNYKTTPPVLDSDGSFFLYSKLTVDKSRWQQGNVFSCSVMHEALHNHYTQKSLSLSPGGGGGSGGGGSGGGGSEVQLLESGGGLVQPGGSLRLSCAASGFTFSDFAMHWVRQAPGKGLEWISYISGDSGYTNYADSVKGRFTISRDNSKNTLYLQMNSLRAEDTAVYYCARDRPYYYYMDVWGKGTTVTVSSGGGGSGGGGSGGGGSGGGGSDIQMTQSPSSLSASVGDRVTITCRASQSVSRSLAWYQQKPGKAPKLLIYAASSLQSGVPSRFSGSGSGTDFTLTISSLQPEDFATYYCQQYKSYPVTFGQGTKVEIK
# light: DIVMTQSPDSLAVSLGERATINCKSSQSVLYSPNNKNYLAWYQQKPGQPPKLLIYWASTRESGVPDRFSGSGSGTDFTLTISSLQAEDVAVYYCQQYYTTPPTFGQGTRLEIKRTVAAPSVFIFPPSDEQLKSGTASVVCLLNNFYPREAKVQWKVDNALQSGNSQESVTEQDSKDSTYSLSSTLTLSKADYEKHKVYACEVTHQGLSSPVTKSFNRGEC
# B14: PMAB38 (bispecific antibody, human IgG1, kappa)
# heavy: B13 heavy with A496W, S634Y
# light: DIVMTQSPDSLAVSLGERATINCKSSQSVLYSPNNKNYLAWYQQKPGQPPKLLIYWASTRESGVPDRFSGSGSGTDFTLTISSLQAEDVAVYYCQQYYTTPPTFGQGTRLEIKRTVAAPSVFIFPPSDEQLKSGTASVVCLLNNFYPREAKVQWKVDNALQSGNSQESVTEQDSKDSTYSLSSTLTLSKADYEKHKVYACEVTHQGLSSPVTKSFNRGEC
# Target: T1, human MAdCAM
# Assay: BLI (Octet), binder on AHC tips
# Summary of the method: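 Binding was measured on an Octet96 RED instrument using anti-human IgG Fc biosensors, which were first equilibrated in assay buffer for 20 minutes. The tips were then loaded for 240 s with test article at 10 μg/mL in assay buffer, exposed to MAdCAM-1 for 120 s of association, and returned to assay buffer for 120 s of dissociation, with MAdCAM-1 run as a seven-point serial dilution from 200 nM to 3.13 nM. Kinetic rates and the dissociation constant were derived by a global one-to-one fit in the Octet data analysis software.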
Binder,Kd [nM],koff [s⁻¹],kon [M⁻¹ s⁻¹],binding result
B1,175,0.127,725000,
B2,333,0.239,717000,
B3,41.8,0.0547,1.31e+06,
B4,413,0.12,290000,
B5,150,0.105,698000,
B6,236,0.136,576000,
B7,71.4,0.0469,656000,
B8,159,0.0725,455000,
B9,146,0.0967,662000,
B10,466,0.195,419000,
B11,63.3,0.0464,733000,
B12,132,0.0717,542000,
B13,,,,no binding (tested: 300 nM (top of the dilution series))
B14,,,,no binding (tested: 200 nM (top of the dilution series))
